Results from patent publication US20220213176A1.
Where two headings read alike, the source gives them in different places.

Legend:
Conditions in all cases: remark: other sources report otherwise
[1] = molecular target: T1, SARS-CoV-2 spike receptor binding domain, wild-type (S-RBD) (SARS-CoV-2), P0DTC2
[2] = molecular target: N501Y S-RBD (SARS-CoV-2), P0DTC2; experiment: BLI (Octet), N501Y S-RBD amine coupled on AR2G sensor, 1:1 fit
[3] = molecular target: N501Y S-RBD (SARS-CoV-2), P0DTC2
[4] = molecular target: full-length SARS-CoV-2 spike (SARS-CoV-2), P0DTC2
[5] = molecular target: SARS-CoV-2 spike N501Y+D614G (SARS-CoV-2), P0DTC2
[6] = molecular target: SARS-CoV-2 spike K417N+N501Y+D614G (SARS-CoV-2), P0DTC2
[7] = molecular target: SARS-CoV-2 spike S247R (SARS-CoV-2), P0DTC2
[8] = molecular target: SARS-CoV-2 spike E484K+N501Y+D614G (SARS-CoV-2), P0DTC2
[9] = molecular target: SARS-CoV-2 spike D614G (SARS-CoV-2), P0DTC2
[10] = molecular target: T2, SARS-CoV-2 spike K417N+E484K+N501Y+D614G (SARS-CoV-2), P0DTC2
[11] = molecular target: SARS-CoV-2 spike D215H (SARS-CoV-2), P0DTC2
[12] = molecular target: SARS-CoV-2 spike N439K+D614G (SARS-CoV-2), P0DTC2
[13] = molecular target: T1, SARS-CoV-2 spike receptor binding …; experiment: BLI (Octet), S-RBD amine-coupled on AR2G sensor, 1:1 binding model [cont'd) h]
[14] = molecular target: N501Y S-RBD (SARS-CoV-2), P0DTC2; experiment: BLI (Octet), N501Y S-RBD amine-coupled on AR2G sensor, 1:1 binding model
[15] = molecular target: SARS-CoV-2 spike E484K+N501Y+D614G (SARS-CoV-2), P0DTC2; experiment: FACS MFI on transfected HEK293T cells, against D614G spike (mut 3)
[16] = molecular target: T2, SARS-CoV-2 spike …; experiment: as above
[17] = molecular target: T1, SARS-CoV-2 spike receptor binding …; experiment: BLI (Octet), S-RBD amine coupled on AR2G sensor, IgG4 in solution, 1:1 fit
[18] = molecular target: T1, SARS-CoV-2 spike receptor binding …; experiment: BLI (Octet), biotinylated S-RBD on SA biosensor, 1:1 binding model [cont'd) h]
[19] = molecular target: B.1.351 S-RBD (SARS-CoV-2), P0DTC2; experiment: BLI (Octet RED96), biotinylated B.1.351 S-RBD on SA biosensor, 1:1 binding model
[20] = molecular target: N501Y S-RBD (SARS-CoV-2), P0DTC2; experiment: BLI (Octet), biotinylated N501Y S-RBD on SA sensor, 1:1 fit
[21] = molecular target: T1, SARS-CoV-2 spike receptor binding …; experiment: BLI (Octet), biotinylated S-RBD on SA sensor, IgG4 in solution, 1:1 fit
[22] = molecular target: T1, SARS-CoV-2 spike receptor binding …; experiment: BLI (Octet RED96), biotin S-RBD on SA sensor, 1:1 fit; dimer S-E6, WT S-RBD
[23] = molecular target: N501Y S-RBD (SARS-CoV-2), P0DTC2; experiment: BLI (Octet), biotinylated N501Y S-RBD on SA biosensor, 1:1 binding model
[24] = molecular target: T1, SARS-CoV-2 spike receptor binding …; experiment: BLI (Octet RED96), biotinylated WT S-RBD on SA biosensor, 1:1 binding model
[25] = molecular target: B.1.351 S-RBD (SARS-CoV-2), P0DTC2; experiment: BLI (Octet RED96), biotin B.1.351 S-RBD on SA sensor, 1:1 fit

Row | Binder | IC50 [1] [nM] | koff [3] [s⁻¹] | kon [3] [M⁻¹ s⁻¹] | MFI [4] | MFI [5] | MFI [6] | MFI [7] | MFI [8] | MFI [9] | MFI [10] | MFI [11] | MFI [12] | further results
1 | S-D4 (antibody, V domains shown) VH: QVQLQESGGGVVQPGRSLRLSCEVSGFTFSDYGMHWVRQAPGKGLEWVAVIWSEGSTEYYADSVKGRFTISRDNSKDTLYLQMNSLRAEDTAVYYCARPGYPTSTDRSPAAAGARQYYYYGMDVWGQGTTVTVSS VL: NFMLTQPHSVSESPGKTVTISCTRSGGSGAANYVQWYQQRPGSSPTTLIYEDSRRPPGVPDRFSGSVDTSSNSASLTISGLQTEDEADYYCQSYDSSNHVVFGGGTKLTVLG | 7.1 | 4.2e-05 | 440000 | 43000 | 281000 | 155000 | 335000 | 138000 | 414000 | 147000 | 411000 | 360000 | Kd [2]: 0.097 nM; koff [13]: 4.6e-05 s⁻¹; kon [13]: 390000 M⁻¹ s⁻¹; koff [14]: 4.2e-05 s⁻¹; kon [14]: 440000 M⁻¹ s⁻¹; MFI as percent of mut 3 [15]: 33.2 % of mut 3; MFI as percent of mut 3 [16]: 35.6 % of mut 3; Kd [17]: 0.12 nM
2 | S-E6 (antibody, V domains shown) VH: QVTLRESGPGLVKPSETLSLTCAVSGGSLSSVNYYWSWIRQHPGKGLEWIGYIYYSGSTNYNPSLKSRVTMSLDTSKNQFSLKLSSVTAADTAVYYCATPGAIMGALHIWGQGTLVTVSS VL: QAVLTQPSSASSTPGQRVIISCSGSSSNIGSNTVSWYQQVPGAAPKLLIYFDYRRPSGVPDRFSGTRSGTSASLGISGLQSEDEADYYCAAWDDSLSAWVFGRGTKLTVLG | 12.2 | 0.00025 | 1.2e+06 | 18200 | 153000 | 312000 | 109000 | 139000 | 157000 | 141000 | 135000 | 133000 | koff [18]: 0.00013 s⁻¹; kon [18]: 1.2e+06 M⁻¹ s⁻¹; Kd [19]: 1.58 nM; koff [19]: 0.000915 s⁻¹; kon [19]: 581000 M⁻¹ s⁻¹; Kd [20]: 0.21 nM; Kd [21]: 0.11 nM; Kd [22]: 0.0836 nM; koff [23]: 0.00025 s⁻¹; kon [23]: 1.2e+06 M⁻¹ s⁻¹; koff [24]: 3.37e-05 s⁻¹; kon [24]: 403000 M⁻¹ s⁻¹; Kd [25]: 1.58 nM
